Experimental data taken from US9329180B2, “Preparation of anti-PEG antibody expressing cell and application thereof” (KAOHSIUNG MEDICAL UNIVERSITY, priority 2010, dated 2016).

B1: 15-2 antibody: anti-methoxyl-PEG IgG2b antibody; VH SEQ ID NO: 9, VL SEQ ID NO: 10 (antibody, V domains shown)
VH: EVKLEESGGGLVQPGGSMKLSCVASGFTFSNYWMNWVRQSPEKGLEWVTEIRSKSNNYATHYAESVKGRFTISRDDSKGSVYLQMNNLRAEDTGIYYCSNRYYWGQGTLVTVSA
VL: DIVMTQSHKFMSTSVRDRVTITCKASQDVNTSVAWYQQKPGQSPKLVIYWASTRHTGVPDRFTGSGSGTDFTLTISNVQSEDLADYFCLQYINYPYTFGGGTKLEIKR
modifications: VH domain of 15-2 antibody; VL domain of 15-2 antibody
B2: AGP3 antibody: monoclonal IgM antibody specific to the PEG backbone; VH SEQ ID NO: 1, VL SEQ ID NO: 2 (antibody, V domains shown)
VH: EVQLVESGGGLVKPGGSLKLSCAASGFTFSDYYMYWVRQTPEKRLEWVATISDDGTYTYYPHSVKGRFTISRDSAKNNLYLQLSSLKSEDTAMYYCARNDARGDYWGQGTSVTVSS
VL: DIVLTQAAFSNPVTLGTSASISCRSSKSLLHSNGITYLYWYLQKPGQSPQLLIYQMSNLASGVPDRFSSSGSGTDFTLRISRVEAEDVGVYYCAQNLELFTFGSGTKLEIKR
modifications: VH domain of AGP3 antibody; VL domain of AGP3 antibody

Experiments:
[1] = 3T3/15-2 cell-based or 15-2 antibody-based sandwich ELISA (AGP4-biotin detection); format: binding; conditions: cell-based versus antibody-based capture
Method: Anti-methoxyl-PEG cells were used as a platform to establish a sandwich ELISA to quantify all kinds of free methoxyl-PEG molecules. 3T3/15-2 cells were seeded into a 96 wells plate. After that, the methoxyl-PEG was added as an analyte, and then a biotinylated anti-PEG antibody (AGP4-Biotin) was used as a detecting antibody. Finally, streptavidin-HRP was added into the 96 wells plate. After adequate washing, the concentration of methoxyl-PEG was known by observing the color intensity of the matrix coated on the 96 wells plate. With existence of serum, this method can quantify all kinds of free methoxyl-PEG molecules (CH3O-PEG2K and CH3O-PEG5K), and the sensitivity was better than using 3T3/AGP3 platform. Therefore, the sandwich ELISA method using 3T3/15-2 platform can sensitively quantify all kinds of methoxyl-PEG molecules.
To test whether 3T3/15-2 cell-based or 15-2 antibody-based sandwich ELISA could be used to quantify CH3O-PEG molecules, CH3O-PEG (1K, 2K, 5K, and 20K Da) or Lipo-Dox (liposomal doxorubicin conjugated with CH3O-PEG2K) was added to 3T3/15-2 cell or 15-2 antibody coated 96 well/plates, respectively. Captured mPEG molecules were then quantified by sequential addition of biotinylated AGP4 antibody (AGP4-biotin), streptavidin-conjugated horseradish peroxidase (streptavidin-HRP) and ABTS substrate. […] The sensitivity depended on the length of the PEG chain. […]

[2] = tested on: Lipo-Dox (liposomal doxorubicin conjugated with CH3O-PEG2K); experiment: as above; format: binding; conditions: cell-based versus antibody-based capture
Method: To test whether 3T3/15-2 cell-based or 15-2 antibody-based sandwich ELISA could be used to quantify CH3O-PEG molecules, CH3O-PEG (1K, 2K, 5K, and 20K Da) or Lipo-Dox (liposomal doxorubicin conjugated with CH3O-PEG2K) was added to 3T3/15-2 cell or 15-2 antibody coated 96 well/plates, respectively. Captured mPEG molecules were then quantified by sequential addition of biotinylated AGP4 antibody (AGP4-biotin), streptavidin-conjugated horseradish peroxidase (streptavidin-HRP) and ABTS substrate. […] The sensitivity depended on the length of the PEG chain. CH3O-PEG5K and CH3O-PEG2K could be effectively detected at concentrations as low as 1 nM, respectively.

[3] = Direct binding of PEG5K-biotin, AGP3 antibody-based and 3T3/AGP3 cell-based ELISA; conditions: streptavidin-HRP and ABTS, 405 nm
Method: (§1) To further investigate the potential mechanism that dictates the differential ability in detecting PEG by the cell surface-expressed anti-PEG antibody and coated AGP3 antibody, the present invention compared direct binding of PEG5K-biotin (FIG. 8A) or PEG5K-^131I (FIGS. 8B and 8C) to AGP3 antibody and 3T3/AGP3 cells precoated in 96-well plates.
The 3T3/AGP3 and 3T3/DNS cells (2×10^5 cells/well) were seeded overnight in 96-well plates in culture medium. After extensive washing, captures were fixed by 1% paraformaldehy for 3 min. Plates were blocked with 5% skim milk in PBS for 2 hours at 37° C. PEG5K-biotin was serially diluted and added to the cells at room temperature for 1 h. After washing, streptavidin-HRP and ABTS were sequentially added to the plates to quantify the captured PEG5K-biotin. Color development was measured at 405 nm on a microplate reader. Using this method, the detection limit of PEG5K-biotin in the 3T3/AGP3 cell-based ELISA was 15.6 ng/mL (FIG. 8A).

[4] = Direct binding of PEG5K-131I to AGP3 antibody-coated and 3T3/AGP3 cell-coated plates (γ counter)
Method: as §1
The 3T3/AGP3 and 3T3/DNS cells (2×10^5 cells/well) were seeded overnight in 96-well plates in culture medium. After extensive washing, captures were fixed by 1% paraformaldehy for 3 min. Plates were blocked with 5% skim milk in PBS for 2 hours at 37° C. PEG5K-^131I was serially diluted and added to the cells at room temperature for 1 h. After washing, 1N NaOH was added to elute the bound PEG5K-^131I. The radioactivity of these samples was counted on a γ counter.

Molecule | detection of CH3O-PEG molecules above molecular weight of 2000 Da [1] | detection of Lipo-Dox, apparent avidity [2] | detection limit of PEG5K-biotin [3] | signal intensity per well ([4]; 0.74 μCi/mL PEG5K-131I) | signal intensity per well ([4]; 2.22 μCi/mL PEG5K-131I) | signal intensity per well ([4]; 6.67 μCi/mL PEG5K-131I) | signal intensity per well ([4]; 20 μCi/mL PEG5K-131I)
B1 | Only 3T3/15-2 cell-based sandwich ELISA could detect | similar, apparent avidities | – | – | – | – | –
B2 | – | – | failed to detect | 114 | 210 | 245 | 293
